Patent US8129197B2, “Cholesterol loaded insect cell membranes as test proteins” (SOLVO Biotechnológial ZRT., priority 2006, dated 2012)

Assays:
mouseBsep = target: T1, mouseBsep (Mus musculus, UniProt Q9QY30); experiment: Vanadate sensitive ATPase assay, mouseBsep Sf9 membrane vesicles; format: biochemical; design: made in house; host or cells: baculovirus infected Sf9 (Spodoptera frugiperda) cells
T1 sequence (Q9QY30 1-1321): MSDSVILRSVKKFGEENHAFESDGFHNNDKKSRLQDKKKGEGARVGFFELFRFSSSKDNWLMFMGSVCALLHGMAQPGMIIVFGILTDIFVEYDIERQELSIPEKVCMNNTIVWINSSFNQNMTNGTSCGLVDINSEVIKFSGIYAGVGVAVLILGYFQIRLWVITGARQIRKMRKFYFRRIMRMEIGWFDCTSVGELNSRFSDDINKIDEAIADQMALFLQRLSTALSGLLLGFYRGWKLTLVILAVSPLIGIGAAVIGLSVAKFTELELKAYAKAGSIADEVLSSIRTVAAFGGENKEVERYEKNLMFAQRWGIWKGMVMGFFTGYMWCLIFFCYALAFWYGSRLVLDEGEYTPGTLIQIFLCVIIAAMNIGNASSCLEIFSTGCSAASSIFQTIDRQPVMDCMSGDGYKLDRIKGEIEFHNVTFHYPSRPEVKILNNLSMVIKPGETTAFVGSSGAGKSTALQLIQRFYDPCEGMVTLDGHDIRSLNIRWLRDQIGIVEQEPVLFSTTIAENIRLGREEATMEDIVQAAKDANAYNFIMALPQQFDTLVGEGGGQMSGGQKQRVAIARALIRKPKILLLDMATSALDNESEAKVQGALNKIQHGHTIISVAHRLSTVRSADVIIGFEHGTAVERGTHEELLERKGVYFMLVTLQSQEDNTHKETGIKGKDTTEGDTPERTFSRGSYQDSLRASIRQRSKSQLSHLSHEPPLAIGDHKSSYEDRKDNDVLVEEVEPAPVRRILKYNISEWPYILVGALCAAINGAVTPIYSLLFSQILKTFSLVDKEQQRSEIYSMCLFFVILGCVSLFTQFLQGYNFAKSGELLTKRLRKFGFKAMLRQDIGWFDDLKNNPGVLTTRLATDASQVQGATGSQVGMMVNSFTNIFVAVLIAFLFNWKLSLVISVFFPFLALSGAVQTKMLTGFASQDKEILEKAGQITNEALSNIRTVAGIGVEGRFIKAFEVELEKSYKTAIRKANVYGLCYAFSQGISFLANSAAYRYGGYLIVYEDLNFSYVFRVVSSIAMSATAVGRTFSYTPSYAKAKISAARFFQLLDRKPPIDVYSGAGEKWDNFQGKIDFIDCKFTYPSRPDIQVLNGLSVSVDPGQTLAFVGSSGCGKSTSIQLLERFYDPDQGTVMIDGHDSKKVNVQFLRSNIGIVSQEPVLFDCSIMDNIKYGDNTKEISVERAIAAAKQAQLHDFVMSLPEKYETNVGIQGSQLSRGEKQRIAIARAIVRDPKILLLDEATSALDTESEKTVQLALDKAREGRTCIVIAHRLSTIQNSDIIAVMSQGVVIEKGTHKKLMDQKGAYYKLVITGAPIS
Text: The samples treated with cholesterol@RAMEB complex were compared with untreated vesicles.

[1] = substrate: C[C@H](CCC(=O)NCCS(=O)(=O)O)[C@H]1CC[C@H]2[C@@H]3[C@H](O)C[C@@H]4C[C@H](O)CC[C@]4(C)[C@H]3C[C@H](O)[C@]12C; experiment: cells, lysate or membranes named

C[C@H](CCC(=O)NCCS(=O)(=O)O)[C@H]1CC[C@H]2[C@@H]3[C@H](O)C[C@@H]4C[C@H](O)CC[C@]4(C)[C@H]3CC[C@]12C [taurochenodeoxycholate]
Vanadate sensitive ATPase activity in the presence of the substrate (mouseBsep; cholesterol loaded mouseBsep vesicles, basal 4.7): 39 nmol Pi/mg prot/min | Vanadate sensitive ATPase activity in the presence of the substrate (mouseBsep; untreated mouseBsep vesicles, basal 37): 64 nmol Pi/mg prot/min

B1: humanBSEP (Homo sapiens) (protein)
chain: MSDSVILRSIKKFGEENDGFESDKSYNNDKKSRLQDEKKGDGVRVGFFQLFRFSSSTDIWLMFVGSLCAFLHGIAQPGVLLIFGTMTDVFIDYDVELQELQIPGKACVNNTIVWTNSSLNQNMTNGTRCGLLNIESEMIKFASYYAGIAVAVLITGYIQICFWVIAAARQIQKMRKFYFRRIMRMEIGWFDCNSVGELNTRFSDDINKINDAIADQMALFIQRMTSTICGFLLGFFRGWKLTLVIISVSPLIGIGAATIGLSVSKFTDYELKAYAKAGVVADEVISSMRTVAAFGGEKREVERYEKNLVFAQRWGIRKGIVMGFFTGFVWCLIFLCYALAFWYGSTLVLDEGEYTPGTLVQIFLSVIVGALNLGNASPCLEAFATGRAAATSIFETIDRKPIIDCMSEDGYKLDRIKGEIEFHNVTFHYPSRPEVKILNDLNMVIKPGEMTALVGPSGAGKSTALQLIQRFYDPCEGMVTVDGHDIRSLNIQWLRDQIGIVEQEPVLFSTTIAENIRYGREDATMEDIVQAAKEANAYNFIMDLPQQFDTLVGEGGGQMSGGQKQRVAIARALIRNPKILLLDMATSALDNESEAMVQEVLSKIQHGHTIISVAHRLSTVRAADTIIGFEHGTAVERGTHEELLERKGVYFTLVTLQSQGNQALNEEDIKDATEDDMLARTFSRGSYQDSLRASIRQRSKSQLSYLVHEPPLAVVDHKSTYEEDRKDKDIPVQEEVEPAPVRRILKFSAPEWPYMLVGSVGAAVNGTVTPLYAFLFSQILGTFSIPDKEEQRSQINGVCLLFVAMGCVSLFTQFLQGYAFAKSGELLTKRLRKFGFRAMLGQDIAWFDDLRNSPGALTTRLATDASQVQGAAGSQIGMIVNSFTNVTVAMIIAFSFSWKLSLVILCFFPFLALSGATQTRMLTGFASRDKQALEMVGQITNEALSNIRTVAGIGKERRFIEALETELEKPFKTAIQKANIYGFCFAFAQCIMFIANSASYRYGGYLISNEGLHFSYVFRVISAVVLSATALGRAFSYTPSYAKAKISAARFFQLLDRQPPISVYNTAGEKWDNFQGKIDFVDCKFTYPSRPDSQVLNGLSVSISPGQTLAFVGSSGCGKSTSIQLLERFYDPDQGKVMIDGHDSKKVNVQFLRSNIGIVSQEPVLFACSIMDNIKYGDNTKEIPMERVIAAAKQAQLHDFVMSLPEKYETNVGSQGSQLSRGEKQRIAIARAIVRDPKILLLDEATSALDTESEKTVQVALDKAREGRTCIVIAHRLSTIQNADIIAVMAQGVVIEKGTHEELMAQKGAYYKLVTTGSPIS
Km ([1]; other: humanBSEP-Sf9 CTRL): 15.03 µM

B2: ratBsep (Rattus norvegicus) (protein)
chain: MSDSVILRSVKKFGEENHAFESDGSHNNDKKSRLQDKMKEGDIRVGFFELFRFSSSKDIWLMLMGGVCALLHGMAQPGILIIFGIMTDIFIKYDIERQELEIPGKACVNNTIVWINSSFHQNMTNGTVCGLVDIESEMIKFSGIYAGVGMTVLILGYFQIRLWVITGARQIRRMRKIYFRRIMRMEIGWFDCTSVGELNSRFADDIEKINDAIADQLAHFLQRMSTAMCGLLLGFYRGWKLTLVILAVSPLIGIGAAVIGLSIAKFTELELKAYAKAGSIADEVLSSIRTVAAFGGENKEVERYEKNLVFAQRWGIWKGMVMGFFTGYMWCLIFFCYALAFWYGSTLVLDEEEYTPGTLVQIFLCVILAAMNIGHASSCLEIFSTGCSAATNIFQTIDRQPVIDCMSGDGYKLDRIKGEIEFHNVTFHYPSRPDVKILDNLSMVIKPGETTALVGSSGAGKSTALQLIQRFYDPCEGMVTLDGHDIRSLNIRWLRDQIGIVEQEPVLFSTTIAENIRFGREDATMEDIVQAAKDANAYNFIMALPQQFDTLVGEGGGQMSGGQKQRVAIARALIRNPKILLLDMATSALDNESEARVQEALNKIQHGHTIISVAHRLSTVRAADVIIGFEHGVAVERGTHEELLERKGVYFMLVTLQSQGDNAHKETSIMGKDATEGGTLERTFSRGSYRDSLRASIRQRSKSQLSLLTHDPPLAVADHKSSYKDSKDNDVLVEEVEPAPVRRILKYNIPEWHYILVGSLSAAINGAVTPIYSLLFSQLLGTFSLLDKEQQRSEIHSMCLFFVILGCVSIFTQFLQGYTFAKSGELLTKRLRKFGFKAMLGQDIGWFDDLRNNPGVLTTRLATDASQVQGATGSQVGMMVNSFTNIIAALLIAFFFSWKLSLIITIFFPFLALSGAVQTKMLTGFASQDKQALEKAGQITSEALSNIRTVAGIGVEGRFIKAFEVELQTSYKTAVRKANIYGLCFAFSQGIAFLANSAAYRYGGYLIAYEGLGFSHVFRVVSSVALSATAVGRTFSYTPSYAKAKISAARFFQLLDRKPPINVYSEAGEKWDNFQGKIDFIDCKFTYPSRPDIQVLNGLSVSVNPGQTLAFVGSSGCGKSTSIQLLERFYDPDQGTVMIDGHDSKKVNIQFLRSNIGIVSQEPVLFDCSIMDNIKYGDNTKEISVERAIAAAKQAQLHDFVMSLPEKYETNVGIQGSQLSRGEKQRIAIARAIVRDPKILLLDEATSALDTESEKTVQTALDKAREGRTCIVIAHRLSTIQNSDIIAVVSQGVVIEKGTHEKLMAQKGAYYKLVITGAPIS
Km ([1]; other: ratBsep-Sf9 CTRL): 2.203 µM

B3: mouseBsep (Mus musculus) (protein)
chain: T1 sequence (Q9QY30 1-1321)
Km ([1]; other: mouseBsep-Sf9 CTRL): 6.798 µM
